Test results reported in the supplement of paper PMC10567573.

B1: RIT1 (parent)
chain: FHALVREIRRKEKEAVLAMEKKSK
B2: MMP1 (parent)
chain: MFFKDRFYMRTNPFYPEVELNFIS

Variants of: B1
Assay: protein stability index of a GFP-peptide fusion (GPS, HEK-293T) (PSI 1-6); higher = more stable
Settings: c terminus: a fixed tail appended
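Note: lentivirally expressed fusions sorted by FACS into six bins by GFP to DsRed ratio, PSI derived from sequencing read proportions per bin multiplied by bin number.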

Protein stability index of substitutions, site by site:
V16: A 2.26, I 1.36, K 1.81, H 2.47, M 1.66, Y 1.95, T 1.57, P 2.62, G 1.7
I8: S 3.08, M 2.32, G 2.23, D 3.15, L 1.65, H 2.14, T 1.87, Y 2.01
E14: G 1.39, H 1.96, Q 1.55, N 1.62, W 2.42, C 1.58, V 1.9, D 1.41
L4: P 3.1, I 2.35, C 1.92, D 3.26, S 2.77, F 2.35, G 2.52
E20: A 2.07, Y 2.35, R 2.59, T 1.92, N 1.88, F 2.18, W 2.98, M 2.08, C 1.52, H 2.12
L17: Y 2.05, R 1.9, D 1.51, S 1.88, N 2.18, A 1.85, T 2.21, V 1.47
F1: E 5.2, D 4.03, K 4.06, L 2.86, A 3.95, R 4.48, I 2.93, Q 4.72
V5: E 2.65, W 1.77, S 1.43, M 2.54, C 2.08, Y 1.82, P 1.73, H 1.97, L 2.01, A 1.46
K13: E 1.08, Y 1.81, D 1.56, P 2.32, M 1.5, H 2.38, I 3.75, V 1.26
K24: R 2.59, V 1.46, A 1.91, I 2.5, T 1.34, N 1.43, P 1.17, E 1.95, Y 1.86, D 1.83, S 1.38
R10: M 2.19, Y 1.82, T 2.09, V 2.29, F 4.17, L 1.55, N 2.34, H 2.18, W 1.75, Q 1.36
H2: A 2.64, R 3.02, S 1.96, Y 2.72, D 3.76, P 3.35, K 2.73, I 2.04, E 3.37, M 2
K21: I 1.41, E 1.39, L 2.2, W 2.48, Y 1.56, V 3.01
M19: N 2.14, P 1.7, K 2.17, E 1.88, Y 1.76, R 2.3, D 2.04, T 1.78, V 1.79, Q 1.44, H 1.35
E12: Q 1.89, N 2.45, I 3.76, F 1.64, G 2.28, H 2.05, L 1.81
K11: D 1.39, Y 1.64, C 2.28, N 1.45, E 2.07, S 1.58, M 2.69, T 2.19, F 1.95
A18: S 2.26, R 2.11, Q 1.95, K 2.5, Y 1.18
R6: H 1.42, E 1.55, L 1.55, D 1.26
S23: A 1.64, M 1.82, L 2.59, Y 2.83, D 1.72, F 2.09, V 1.33, N 1.64, K 2.31
A15: W 2.02, C 2.1, K 2.72, H 2.28, T 2.18, L 1.63, N 1.81, G 1.91
R9: K 1.77, G 2.27, L 2.12, T 1.64, Y 2.09, C 1.72, Q 2.5
K22: R 2.41, T 2.3, P 1.93, Y 1.49, M 2.34, C 1.65, L 1.97, E 1.87, N 2.29, S 1.42, W 1.46, I 1.71
E7: Y 2.04, W 1.59, G 1.62, P 2.58, A 2.79, C 2.16
A3: F 2.34, I 2.12, C 2.07, M 1.96, D 2.19

Variants of: B2
Assay: as above
Settings: c terminus: a fixed tail appended

Protein stability index: each site, then its substitutions
E17: M 2.78, Y 2.42, P 1.8, W 3.19, L 2.55, S 2.15, N 3.69, V 2.99, T 1.84, R 2.57
L20: S 2.35, E 3.27, V 2.11, A 2.27, P 1.99, H 2.98, T 1.85, R 2.25, W 3.09, G 1.59, Q 1.36, I 3.27, C 3.04, F 3.19, K 3.34, D 2.28, N 2.06
F22: T 1.65, H 2.16, R 2.69, N 2.15, C 2.19, I 3.29, E 2.38, D 1.31, G 2.22, S 1.67, Y 2.94, Q 1.9, W 2.09, M 2.32, L 3.27, V 2.92, P 2.18, K 1.83, A 2.48
I23: F 2.41, G 1.67, S 2.63, P 3.27, R 3.09, E 2.33, D 2.65, T 1.56, M 3.28, H 1.76, A 2.47, Q 2.34, Y 1.75, N 1.53, K 2.16, C 2.81, W 3.27, V 3.61, L 3.31
E19: F 3.27, W 1.3, V 2.27, D 2.34, A 3.48, L 2.64, M 1.47, I 3.25, P 3.53, C 3.18, G 3.69, S 2.61, Q 2.3, K 4.43, T 2.44, Y 3.1, H 3.47, N 3.6
V18: R 1.87, P 3.06, E 3.27, D 2.66, Y 2.64, I 2.84, K 3.54, M 2.52, C 2.99, N 1.78, W 3.22, A 3.25, L 2.41, Q 2.35, G 2.08, T 3.87, S 3.28, F 2.61, H 3.06
N21: D 3.07, I 3.34, K 1.96, L 3, C 3.71, T 3.97, Q 3.29, Y 3.15, A 2.56, V 2.67, P 2.26, R 2.74, G 4.41, S 2.91, F 2.33, M 1.94, W 2.85, H 2.76
S24: Y 3.13, W 3.15, L 4.01, H 2.68, T 3.07, N 2.88, P 3.07, E 2.3, D 2.77, Q 2.87, C 2.33, G 2.88, V 3.21, R 2.05, K 2.83, F 3.13, A 2.44, M 2.75
